Experiment [1] deals with Integrin beta-2/Integrin alpha-M recombinant protein complex (R and D 4047-AM) (UniProt P11215 17-1105). Put plainly: phage display selection on immobilised complex, clones evaluated by phage ELISA. The procedure:
Briefly, Integrin-beta-2 recombinant protein complexes were immobilized on Maxisorp Immuno plates (ThermoFisher, #12-565-135) and used for positive binding selections with library phage pools that were first exposed to neutravidin coated wells to deplete nonspecific binders. After four rounds of binding selections, clonal phage was prepared and evaluated by phage ELISA and sequencing as described (PMID: 23219464).

The target in experiment [2] is T1, recombinant Itgβ2 (Integrin beta-2 complex, alpha chain not stated for this result).
T1 construct: Bought R&D Systems heterodimer; also called Integrin-beta 2 complexes
Put plainly: BLI (Octet), antibody captured on AHQ biosensors, Integrin beta-2 complex in solution, 1:1 fit. The procedure:
(§1) To determine the binding kinetic parameters of the antibodies, BLI experiments were performed on an Octet HTX instrument (Sartorius) at 1000 rpm and 25° C. All proteins were diluted in an assay buffer (PBS, 1% BSA, 0.05% Tween 20). Test and control antibodies at a concentration of 2 μg/ml were first captured on AHQ biosensors to achieve the binding signals of 0.8-1.3 nm. Unoccupied Fc-binding sites on the antibody-coated sensors were subsequently quenched by 20 μg/mL of the Fc protein. After equilibration with the assay buffer, the biosensors were then dipped for 600 s into wells containing 5-fold serial dilution of Integrin-beta 2 complexes (association phase), followed by a transfer back into an assay buffer for additional 600 s (dissociation phase). Assay buffer alone served as a negative control. Binding response data were reference subtracted and were globally fitted with 1:1 binding model using ForteBio's Octet Systems software 9.0.

The target of experiment [3] is T2, Integrin beta-2/Integrin alpha-L recombinant protein complex (R and D 3868-AV) (UniProt P20701 26-1090).
T2 construct: Bought complex; also called Itgal/Itgβ2; ItgaL/Itgβ2
Put plainly: BLI (Octet), antibody captured on AHQ biosensor, integrin complex in solution at 300/60/12 nM; the legend paragraph 15 names Itgal/Itgb2 as the antigen. The procedure: as §1

B1: Antibody D3-7065 (antibody, V domains shown)
VH: EVQLVESGGGLVQPGGSLRLSCAASGFTISYYYMHWVRQAPGKGLEWVASISSSSGYTYYADSVKGRFTISADTSKNTAYLQMNSLRAEDTAVYYCARGAMDYWGQGTLVTVSS
VL: DIQMTQSPSSLSASVGDRVTITCRASQSVSSAVAWYQQKPGKAPKLLIYSASSLYSGVPSRFSGSRSGTDFTLTISSLQPEDFATYYCQQFSSGSWAPITFGQGTKVEIK
notes: It was purified on protein A and captured on AHQ biosensors for BLI
On to B1, for which the binding result in experiment [1] and in experiment [3] was “binds” in each case. Moreover, the Kd in experiment [2] amounted to 1.56 nM.

The values above are taken from patent publication US20260137781A1 (University of California, published 2026).
